# Target: human TrkA on the surface of TF-1 cells (human), P04629
# Test: cell-based or functional assay
# Chain of human TrkA on the surface of TF-1 cells (human), P04629 (P04629 33-796): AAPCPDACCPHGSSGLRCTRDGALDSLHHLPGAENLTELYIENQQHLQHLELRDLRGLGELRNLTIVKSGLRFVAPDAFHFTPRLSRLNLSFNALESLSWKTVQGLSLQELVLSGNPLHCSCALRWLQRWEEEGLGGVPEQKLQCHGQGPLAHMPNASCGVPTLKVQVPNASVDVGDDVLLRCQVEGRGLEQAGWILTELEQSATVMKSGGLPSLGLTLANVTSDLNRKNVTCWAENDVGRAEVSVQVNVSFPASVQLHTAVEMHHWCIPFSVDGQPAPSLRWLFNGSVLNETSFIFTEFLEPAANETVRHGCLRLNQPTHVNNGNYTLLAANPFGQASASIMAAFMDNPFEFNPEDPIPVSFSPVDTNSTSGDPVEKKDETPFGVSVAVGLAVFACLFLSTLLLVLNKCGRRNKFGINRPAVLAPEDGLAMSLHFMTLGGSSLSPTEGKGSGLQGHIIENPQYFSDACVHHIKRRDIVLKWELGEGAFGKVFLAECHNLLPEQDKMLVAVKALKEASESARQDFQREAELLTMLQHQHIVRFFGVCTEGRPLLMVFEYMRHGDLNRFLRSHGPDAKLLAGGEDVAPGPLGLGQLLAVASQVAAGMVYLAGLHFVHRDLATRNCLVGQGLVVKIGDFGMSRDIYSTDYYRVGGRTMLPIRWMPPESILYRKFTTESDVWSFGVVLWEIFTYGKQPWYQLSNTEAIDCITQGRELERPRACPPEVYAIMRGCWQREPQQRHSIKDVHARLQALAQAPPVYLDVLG
binder,measurement,value
"MNAC13 mouse antibody (antibody, mouse IgG1, kappa) heavy: EVKLVESGGGLVQPGGSLKLSCAASGFTFSTYTMSWARQTPEKRLEWVAYISKGGGSTYYPDTVKGRFTISRDNAKNTLYLQMSSLKSEDTALYYCARGAMYGNDFFYPMDYWGQGTSVTVSSKTTPPSVYPLAPGSAAQTNSMVTLGCLVKGYFPEPVTVTWNSGSLSSGVHTFPAVLESDLYTLSSSVTVPSSPRPSETVTCNVAHPASSTKVDKKIVPRDCGCKPCICTVPEVSSVFIFPPKPKDVLTITLTPKVTCVVVDISKDDPEVQFSWFVDDVEVHTAQTQPREEQFNSTFRSVSELPIMHQDWLNGKEFKCRVNSAAFPAPIEKTISKTKGRPKAPQVYTIPPPKEQMAKDKVSLTCMITDFFPEDITVEWQWNGQPAENYKNTQPIMNTNGSYFVYSKLNVQKSNWEAGNTFTCSVLHEGLHNHHTEKSLSHSPGK light: QIVLTQSPAIMSASLGEEITLTCSASSSVSYMHWYQQKSGTSPKLLIYTTSNLASGVPSRFSGSGSGTFYSLTISSVEAEDAADYYCHQWSSYPWTFGGGTKLEIKADAAPTVSIFPPSSEQLTSGGASVVCFLNNFYPKDINVKWKIDGSERQNGVLNSWTDQDSKDSTYSMSSTLTLTKDEYERHNSYTCEATHKTSTSPIVKSFNRNEC",TF-1 cell proliferation assay IC50 (beta-NGF induced proliferation),0.23 µg/mL

# From US20170362327A1
